Experimental findings from FireProtDB (doi:10.1093/protein/gzt061) are described below.

B1: Limonene-1,2-epoxide hydrolase, Q9ZAG3 (parent)
chain: MTSKIEQPRWASKDSAAGAASTPDEKIVLEFMDALTSNDAAKLIEYFAEDTMYQNMPLPPAYGRDAVEQTLAGLFTVMSIDAVETFHIGSSNGLVYTERVDVLRALPTGKSYNLSILGVFQLTEGKITGWRDYFDLREFEEAVDLPLRG

In this data set the parent is B1. Conditions: Rhodococcus erythropolis; pH 7.1; Thermal; Fluorescence; Potassium phosphate 50mM; transition: 2; reversible: no; structure 1NWW; whole UniProt chain shown.

As to Q121V, the Tm (in general, the temperature at which the thermal transition is half complete) amounted to 38.8 °C and the “change of melting temperature, mutant - wild type (higher = more stable)” value (shortened to “change of melting temperature, mutant”) was -10 °C.

On to S12R, for which the Tm came to 49 °C and the “change of melting temperature, mutant” value was found to be 0.2 °C.

Regarding I127F, the Tm worked out at 46.3 °C and the “change of melting temperature, mutant” value was -2.5 °C.

Regarding K13P, the Tm was determined as 44.8 °C and the “change of melting temperature, mutant” value is -4 °C.

With K110R, the melting temperature (Tm) turned out to be 47.3 °C and the “change of melting temperature, mutant” value is -1.5 °C.

For S15K, the Tm turned out to be 48.5 °C and the “change of melting temperature, mutant” value is -0.3 °C.

For the variant S15P, the melting temperature (Tm) amounted to 49 °C and the “change of melting temperature, mutant” value came out at 0.2 °C.

On to A20P, for which the Tm stood at 46.7 °C and the “change of melting temperature, mutant” value is -2.1 °C.

Consider N92R, for which the Tm is 50.6 °C and the “change of melting temperature, mutant” value was found to be 1.8 °C.

As for N92K, the melting temperature (Tm) amounted to 56.1 °C and the “change of melting temperature, mutant” value turned out to be 7.3 °C.

Regarding K42R, the Tm came out at 47.5 °C and the “change of melting temperature, mutant” value is -1.3 °C.

Consider A72R, for which the Tm was 47 °C and the “change of melting temperature, mutant” value was -1.8 °C.

Consider L94F, for which the Tm was 48.8 °C and the “change of melting temperature, mutant” value stood at 0 °C.

Consider L106R, for which the Tm amounted to 46.5 °C and the “change of melting temperature, mutant” value was -2.3 °C.

With A105C V143C, the melting temperature (Tm) is 46.5 °C and the “change of melting temperature, mutant” value was -2.3 °C.

In the case of D24R, the Tm was found to be 45 °C and the “change of melting temperature, mutant” value was -3.8 °C.

A19K: the midpoint of thermal melting (Tm) turned out to be 51.3 °C and the “change of melting temperature, mutant” value is 2.5 °C.

For the variant A41R, the Tm was 48.8 °C and the “change of melting temperature, mutant” value is 0 °C.

Regarding A41S, the Tm was determined as 49.1 °C and the “change of melting temperature, mutant” value turned out to be 0.3 °C.

For A17C N92C, the Tm amounted to 64 °C and the “change of melting temperature, mutant” value is 15.2 °C.

E124D: the melting temperature (Tm) is 50.1 °C and the “change of melting temperature, mutant” value is 1.3 °C.

Turning to E124K, the midpoint of thermal melting (Tm) was 47.5 °C and the “change of melting temperature, mutant” value was -1.3 °C.

Consider E124R, for which the Tm came to 46 °C and the “change of melting temperature, mutant” value is -2.8 °C.

Consider T76K, for which the Tm turned out to be 50.3 °C and the “change of melting temperature, mutant” value turned out to be 1.5 °C.

Turning to D33R, the Tm was 46.5 °C and the “change of melting temperature, mutant” value was -2.3 °C.

For the variant D33K, the Tm stood at 47.3 °C and the “change of melting temperature, mutant” value is -1.5 °C.

As to A17C L94C, the Tm stood at 56 °C and the “change of melting temperature, mutant” value turned out to be 7.2 °C.

Y62W: the Tm was found to be 48.8 °C and the “change of melting temperature, mutant” value was found to be 0 °C.

Turning to A16R, the Tm is 48.3 °C and the “change of melting temperature, mutant” value is -0.5 °C.

Take I5C E84C: the Tm was found to be 64 °C and the “change of melting temperature, mutant” value amounted to 15.2 °C.

Turning to T85P, the Tm came out at 42.8 °C and the “change of melting temperature, mutant” value was -6 °C.

Take T85L: the Tm amounted to 51.3 °C and the “change of melting temperature, mutant” value worked out at 2.5 °C.

For the variant T85V, the Tm was 55.6 °C and the “change of melting temperature, mutant” value is 6.8 °C.

For T85I, the Tm stood at 54.6 °C and the “change of melting temperature, mutant” value stood at 5.8 °C.

As for M52C G129C, the Tm is 40 °C and the “change of melting temperature, mutant” value was -8.8 °C.

In the case of K4C A82C, the Tm stood at 59 °C and the “change of melting temperature, mutant” value came out at 10.2 °C.

With V102C, the Tm was 62 °C and the “change of melting temperature, mutant” value is 13.2 °C.

Regarding G18N, the Tm was determined as 49.1 °C and the “change of melting temperature, mutant” value was 0.3 °C.

For I44C E68C, the Tm came out at 56 °C and the “change of melting temperature, mutant” value amounted to 7.2 °C.

With D24C L122C, the Tm came to 36 °C and the “change of melting temperature, mutant” value is -12.8 °C.

On to Q69R, for which the melting temperature (Tm) was 49.1 °C and the “change of melting temperature, mutant” value was 0.3 °C.

With A48C K126C, the Tm stood at 53 °C and the “change of melting temperature, mutant” value was 4.2 °C.

For the variant E68Q, the midpoint of thermal melting (Tm) worked out at 49.3 °C and the “change of melting temperature, mutant” value came out at 0.5 °C.

Turning to Y96F, the Tm was 51.6 °C and the “change of melting temperature, mutant” value amounted to 2.8 °C.

On to E45K, for which the Tm is 50.8 °C and the “change of melting temperature, mutant” value was 2 °C.

For E45R, the Tm was determined as 47.8 °C and the “change of melting temperature, mutant” value is -1 °C.

For M32C V83C, the midpoint of thermal melting (Tm) came to 44 °C and the “change of melting temperature, mutant” value was -4.8 °C.

On to A142R, for which the midpoint of thermal melting (Tm) was 46 °C and the “change of melting temperature, mutant” value is -2.8 °C.

Turning to P57C D135C, the Tm was 35 °C and the “change of melting temperature, mutant” value was -13.8 °C.

For A66P, the Tm amounted to 49.6 °C and the “change of melting temperature, mutant” value came out at 0.8 °C.

Take L122F: the Tm came to 41.3 °C and the “change of melting temperature, mutant” value is -7.5 °C.

As for G89C S91C, the melting temperature (Tm) stood at 66 °C and the “change of melting temperature, mutant” value was 17.2 °C.

For D65E, the Tm came out at 49.3 °C and the “change of melting temperature, mutant” value is 0.5 °C.

Consider D50P, for which the Tm amounted to 42.8 °C and the “change of melting temperature, mutant” value is -6 °C.

Consider Y112C A142C, for which the Tm was found to be 56 °C and the “change of melting temperature, mutant” value turned out to be 7.2 °C.

Regarding S111R, the Tm was 48.8 °C and the “change of melting temperature, mutant” value amounted to 0 °C.

Regarding S111K, the Tm was 46.5 °C and the “change of melting temperature, mutant” value was -2.3 °C.

Consider I27M, for which the Tm came to 47 °C and the “change of melting temperature, mutant” value is -1.8 °C.
